From PMC3854711, “Handling Uncertainty in Dynamic Models: The Pentose Phosphate Pathway in Trypanosoma brucei” (PLoS Computational Biology, 2013)

Key:
[1] = substrate: Nc1ncnc2c1ncn2[C@@H]1O[C@H](COP(=O)(O)OP(=O)(O)O)[C@@H](O)[C@H]1O; assay: coupled spectrophotometric assay (HXK/G6PDH, NADP); assay type: biochemical, Trypanosoma brucei; settings: ribose 5-phosphate co-substrate (5 mM), 10 mM MgCl2, pH 7, 25°C, reverse direction, ribose production
Text: coupled spectrophotometric assay (HXK/G6PDH, NADP) on T. brucei ribokinase | the enzyme could indeed work in the ribose production direction

[2] = substrate: Nc1ncnc2c1ncn2[C@@H]1O[C@H](COP(=O)(O)OP(=O)(O)OP(=O)(O)O)[C@@H](O)[C@H]1O; assay: coupled spectrophotometric assay (PK/LDH, NADH); assay type: biochemical, Trypanosoma brucei; settings: ribose co-substrate (5 mM), 10 mM MgCl2, pH 7, 25°C, ribose 5-phosphate production direction
Text: coupled spectrophotometric assay (PK/LDH, NADH) on T. brucei ribokinase | enzyme kinetics of heterologously expressed T. brucei ribokinase were characterized

B1: T. brucei ribokinase (Trypanosoma brucei brucei TREU927) (protein)
chain: MSAAGVKSGNGCIADTPIVVVGACFVDYVAYVDHLPQVGESLRCRSFSKGFGGKGSNQAVCAGRLGASVSMVGAVGTDGDGADYIANFQRNGVQVSNVYRMENTSTGLAMIFVDSTTSHNEIVFSPNATGALTVDYLRKQSDNYNNFFGPKCRYIILQNEIPVETTLDVLKEAHTRGIYTVFNAAPAPSADEVAVVKPFLSYVSLFCVNEVEASMITGIDVKDTQSAILATEEMQKLGAHSVVTTLGGNGYVIGEKGKPPRHLPSITVKAVDSTGAGDCFVGAMVFYLSMGKSLEESCKRANMIAAISVQRPGTQSSYPTLDELPAEVKECKI
notes: N-terminal His-tag from pET28a(+), expressed in E. coli BL21(DE3), Ni chelate purified
Work on B1 yielded a Km [1] of 250 µM and a Km [2] of 240 µM.
